Test results reported in PMC7464140, “Cooperative Regulation of Campylobacter jejuni Heat-Shock Genes by HspR and HrcA” (Microorganisms, 2020).

Target: the molecule itself
Assay: cross-linking; in vitro chemical cross-linking of HrcA and HspR proteins with formaldehyde (Figure S2)

Protein | stoichiometry N
His-tagged HrcA (C. jejuni) (natural protein, UniProt Q9PPG2 1-264, looked up, HrcA heat-shock transcriptional repressor of Campylobacter jejuni; it could also have been GST-HrcA; also called His-HrcA; recombinant HrcA protein; source: E. coli BL21 (DE3), pET15b-hrcA, purified (Ni2+-NTA)) MMKSRDKKDLILESIIQTYLLDNAPIGSNELNSNLCIPASTIRVYLKRLSDEGLITQLHISSGRIPTILTMQNYWQNFWEKEQDKNIHIKNESFLKELSKEFEIYCLVYGGRSLVLKEVLDLNTKFIVLDFEDEELVLKYEKEAWNFLQSLIGLDLSSIEKIALRVHFIDLVEKIASLRQNLICYRSNEERAYQIYQNDEFVKLLDCQIHRHFKESLEFEPLFKEGFMGLKVDAQFLGEDVNIILAGSVYTDYKKILQYIKEAA | 2
His-tagged HspR (C. jejuni) (natural protein, UniProt Q0P926 1-124, looked up, HspR heat-shock transcriptional repressor of Campylobacter jejuni; Probably strain NCTC11168, the only C. jejuni strain named; also called His-HspR; recombinant His-tagged HspR; source: E. coli BL21 (DE3), pET15b-hspR, purified (Ni2+-NTA)) MEQHYDEPVYLISVVAKVLSIHPQTLRQYEREGLIEPSRTDGKIRLYSQRDIDRIKLILRLTRDMGINLAGVDVILKLKNQLHEFENLIDELRLELSKQQDKEAASKAVVKHKNSFDLIFYEKK | 2
